Each block holds one binder with its values, some of them ahead of it. Where no end group is shown, it is not given here.
Assays:
Details in all cases: both partners purified
[1] = biological target: T1, ZZZ3 ZZ domain (aa 816–874) (human, UniProt Q8IYH5 816-874); assay: NMR structure; solution structure; 2 mM 13C/15N-labeled ZZZ3 (816–874) with 10 mM H3 (1–12) or 4 mM H3K4ac (1–8); 298 K; 20 mM Tris–HCl pH 7.0, 100 mM NaCl, 5 mM DTT
T1 construct: 13C/15N isotope-labelled sample for the NMR structures
T1 sequence (looked up): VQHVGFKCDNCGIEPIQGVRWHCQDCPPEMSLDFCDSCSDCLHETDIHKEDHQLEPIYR

[2] = biological target: T2, ZZZ3 ZZ domain (aa 800–903), GST cleaved (human, UniProt Q8IYH5 800-903); assay: MST; displacement assay: unlabeled peptide added to a preformed complex of 5 μM ZZ (aa 800–903) and 80 nM C-terminal fluorescein-labeled H3 (1–12); 20 mM Tris–HCl pH 7.0, 150 mM NaCl, 3 mM DTT
T2 construct: ZZ domain of human ZZZ3, aa 800–903; also called WT ZZZ3 ZZ; source: E. coli BL21 (DE3) RIL, purified (glutathione Sepharose, PreScission cleavage, size-exclusion chromatography)
T2 sequence (looked up): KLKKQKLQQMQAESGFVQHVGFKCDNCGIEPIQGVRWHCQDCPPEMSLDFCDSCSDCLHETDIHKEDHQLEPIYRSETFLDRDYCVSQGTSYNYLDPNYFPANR

[3] = biological target: T3, GST-ZZZ3 ZZ domain (amino acids 800–903) (human, UniProt Q8IYH5 800-903); assay: pull-down; peptide pulldown: 1 µg biotinylated histone peptide with 1–2 µg GST-fused protein in 50 mM Tris–HCl 7.5, 300 mM NaCl, 0.1% NP-40, overnight; streptavidin beads; western blot
T3 construct: ZZ-type zinc finger domain of human ZZZ3, amino acids 800–903, in pGEX-6P1; also called GST-fused ZZZ3 ZZ; source: E. coli BL21 (DE3) RIL, purified (glutathione Sepharose 4B)
T3 sequence (looked up): T2 sequence (looked up)

binding result [1]: binds
B1: H3K4ac peptide (aa 1–8) (peptide, UniProt P68431 2-9, looked up)
peptide: ARTK(Ac)QTAR
notes: histone H3, aa 1–8; also called H3K4ac (1–8); source: synthetic peptide

binding result [2]: binds
binding result [1]: binds
B2: unmodified histone H3 tail peptide (aa 1–12) (peptide, UniProt P68431 2-13, looked up)
peptide: ARTKQTARKSTG
notes: histone H3, aa 1–12; also called H3 (1–12); H3 peptide; source: synthetic peptide

binding result [3]: binds
B3: histone H3 peptide of the N-terminal eight amino acids, biotinylated (peptide, UniProt P68431 2-9, looked up)
peptide: ARTKQTAR
modifications: also: biotinylated, position not given here
notes: histone H3, N-terminal eight amino acids; also called The N-terminal eight amino acids of H3; source: synthetic peptide (CPC and Scilight Biotechnology)

fold enhancement of binding over the unmodified H3 peptide [2]: 3 fold
B4: H3K4ac (1–12) peptide, unlabeled (peptide, UniProt P68431 2-13, looked up)
peptide: ARTK(Ac)QTARKSTG
notes: histone H3, aa 1–12; source: synthetic peptide
